Reference: IntAct's records for PubMed 9436979

B1: Mothers against decapentaplegic homolog 6 (Homo sapiens), O43541 (parent)
chain: MFRSKRSGLVRRLWRSRVVPDREEGGSGGGGGGDEDGSLGSRAEPAPRAREGGGCGRSEVRPVAPRRPRDAVGQRGAQGAGRRRRAGGPPRPMSEPGAGAGSSLLDVAEPGGPGWLPESDCETVTCCLFSERDAAGAPRDASDPLAGAALEPAGGGRSREARSRLLLLEQELKTVTYSLLKRLKERSLDTLLEAVESRGGVPGGCVLVPRADLRLGGQPAPPQLLLGRLFRWPDLQHAVELKPLCGCHSFAAAADGPTVCCNPYHFSRLCGPESPPPPYSRLSPRDEYKPLDLSDSTLSYTETEATNSLITAPGEFSDASMSPDATKPSHWCSVAYWEHRTRVGRLYAVYDQAVSIFYDLPQGSGFCLGQLNLEQRSESVRRTRSKIGFGILLSKEPDGVWAYNRGEHPIFVNSPTLDAPGGRALVVRKVPPGYSIKVFDFERSGLQHAPEPDAADGPYDPNSVRISFAKGWGPCYSRQFITSCPCWLEILLNNPR

Variants of: B1
Details: with smad1_human SMAD1, Q15797
Sequence of smad1_human SMAD1, Q15797 (Q15797 whole entry): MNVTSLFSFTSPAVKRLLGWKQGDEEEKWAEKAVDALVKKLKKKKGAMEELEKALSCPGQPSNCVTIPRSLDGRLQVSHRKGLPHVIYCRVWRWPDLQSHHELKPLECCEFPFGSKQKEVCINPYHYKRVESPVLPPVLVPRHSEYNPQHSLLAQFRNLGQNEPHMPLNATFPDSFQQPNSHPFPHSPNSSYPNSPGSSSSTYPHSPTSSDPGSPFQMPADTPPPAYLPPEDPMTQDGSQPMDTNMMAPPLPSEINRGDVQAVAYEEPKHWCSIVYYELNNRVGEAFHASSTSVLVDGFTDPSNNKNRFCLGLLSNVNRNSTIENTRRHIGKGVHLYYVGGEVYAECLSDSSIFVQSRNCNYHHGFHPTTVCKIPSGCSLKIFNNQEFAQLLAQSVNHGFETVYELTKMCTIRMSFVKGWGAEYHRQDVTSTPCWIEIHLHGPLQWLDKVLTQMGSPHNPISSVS

| Variant | effect of a mutation on the interaction |
| --- | --- |
| G471S | disrupting interaction |
